Patent publication US20030220243A1 (Eli Lilly, published 2003)
Ends that are not written are not given here.

These binders were tested against GLP-1 receptor (assay: cell-based or functional assay).
In the case of HVEGTFTSDVSSYLEKQAAKEFIAWLVKGR-NH2 [Val^8-Lys^22-GLP-1(7-36)NH2], the “GLP-1 Receptor Activation” value is reported as 0.53 relative to GLP-1(7-37)OH. With HVEGTFTSDVSSYLEEQAAKEFIAWLVKGR-NH2 [Val^8-Glu^22-GLP-1(7-36)NH2] the “GLP-1 Receptor Activation” value was 1 relative to GLP-1(7-37)OH. In the case of HVEGTFTSDVSSYLEGQAAKEFIAWLVKGGP-NH2 [Val^8-Gly^36-Pro^37-GLP-1(7-37)NH2], the “GLP-1 Receptor Activation” value is reported as 0.53 relative to GLP-1(7-37)OH. In the case of HVEGTFTSDVSSYKEGQAAKEFIAWLVKGRG [Val^8-Lys^20-GLP-1(7-37)OH], the “GLP-1 Receptor Activation” value is reported as 0.33 relative to GLP-1(7-37)OH. HVEGTFTSDVSSYLEGQAAKEFIAWLVKGRH [Val^8-His^37-GLP-1(7-37)OH] was tested, and the “GLP-1 Receptor Activation” value was 0.33 relative to GLP-1(7-37)OH. HAEGTFTSDVSSYLEGQAAHEFIAWLVKGRG [Ala^8-His^26-GLP-1(7-37)OH] was tested, and the “GLP-1 Receptor Activation” value was 0.8 relative to GLP-1(7-37)OH. For HVEGTFTSDVSSYLEGQAAKEFIAWLVKHRG [Val^8-His^35-GLP-1(7-37)OH], the “GLP-1 Receptor Activation” value was 0.41 relative to GLP-1(7-37)OH. HVEGTFTSDVSSYLEGQKAKEFIAWLVKGRG [Val^8-Lys^24-GLP-1(7-37)OH] was tested, and the “GLP-1 Receptor Activation” value was 0.02 relative to GLP-1(7-37)OH. HVEGTFTSDVSSYLEGQAAKEFIDWLVKGRG [Val^8-Asp^30-GLP-1(7-37)OH] was tested, and the “GLP-1 Receptor Activation” value was 0.15 relative to GLP-1(7-37)OH. For HGEGTFTSDVSSYLEGQAAKEFIEWLVKGRG [Gly^8-Glu^30-GLP-1(7-37)OH], the “GLP-1 Receptor Activation” value was 0.29 relative to GLP-1(7-37)OH. With HVEGTFTSDVSSYLEPQAAKEFIAWLVKGRG [Val^8-Pro^22-GLP-1(7-37)OH] the “GLP-1 Receptor Activation” value was 0.01 relative to GLP-1(7-37)OH. With HVEGTFTSDVSSYLEKQAAKEFIEWLVKGRG [Val^8-Lys^22-Glu^30-GLP-1(7-37)OH] the “GLP-1 Receptor Activation” value was 0.37 relative to GLP-1(7-37)OH. HVEGTFTSDVSSYLEGQAAKEFIAWLVEGRG [Val^8-Glu^34-GLP-1(7-37)OH] was tested, and the “GLP-1 Receptor Activation” value was 0.17 relative to GLP-1(7-37)OH. HVEGTFTSDVSSYLEKQAAKEFIAWLVKGRG [Val^8-Lys^22-GLP-1(7-37)OH] was tested, and the “GLP-1 Receptor Activation” value was 0.58 relative to GLP-1(7-37)OH. With HVEGTFTSDVSSYLEGQAAKEFIEWLVKGRG [Val^8-Glu^30-GLP-1(7-37)OH] the “GLP-1 Receptor Activation” value was 0.29 relative to GLP-1(7-37)OH. For HVEGTFTSDVSSYLEGQHAKEFIAWLVKGRG [Val^8-His^24-GLP-1(7-37)OH], the “GLP-1 Receptor Activation” value was 0.007 relative to GLP-1(7-37)OH. HVEGTFTSDVSSYLEAQAAKEFIAWLVKGRG [Val^8-Ala^22-GLP-1(7-37)OH] was tested, and the “GLP-1 Receptor Activation” value was 0.56 relative to GLP-1(7-37)OH. With HVEGTFTSDLSSYLEGQAAEEFIAWLVKGRG [Val^8-Leu^16-Glu^26-GLP-1(7-37)OH] the “GLP-1 Receptor Activation” value was 0.23 relative to GLP-1(7-37)OH. HVEGTFTSDASSYLEGQAAKEFIAWLVKGRG [Val^8-Ala^16-GLP-1(7-37)OH] was tested, and the “GLP-1 Receptor Activation” value was 0.112 relative to GLP-1(7-37)OH. HVEGTFTSDVSSYLEHQAAKEFIAWLVKGRG [Val^8-His^22-GLP-1(7-37)OH] was tested, and the “GLP-1 Receptor Activation” value was 0.14 relative to GLP-1(7-37)OH. With HVEGTFTSDVSSYLEGQAAKEFIAWLVKGEG [Val^8-Glu^36-GLP-1(7-37)OH] the “GLP-1 Receptor Activation” value was 0.11 relative to GLP-1(7-37)OH. HVEGTFTSDVSSYLEGKAAKEFIAWLVKGRG [Val^8-Lys^23-GLP-1(7-37)OH] was tested, and the “GLP-1 Receptor Activation” value was 0.18 relative to GLP-1(7-37)OH. HVEGTFTSDVSSYLEGQAAKEFIAWLAKGRG [Val^8-Ala^33-GLP-1(7-37)OH] was tested, and the “GLP-1 Receptor Activation” value was 0.1 relative to GLP-1(7-37)OH. With HVEGTFTSDESSYLEGQAAKEFIAWLVKGRG [Val^8-Glu^16-GLP-1(7-37)OH] the “GLP-1 Receptor Activation” value was 0.047 relative to GLP-1(7-37)OH. With HVEGTFTSDVSSYLEDQAAKEFIAWLVKGRG [Val^8-Asp^22-GLP-1(7-37)OH] the “GLP-1 Receptor Activation” value was 0.4 relative to GLP-1(7-37)OH. In the case of HGEGHFTSDVSSYLEGQAAKEFIAWLVKGRG [Gly^8-His^11-GLP-1(7-37)OH], the “GLP-1 Receptor Activation” value is reported as 0.282 relative to GLP-1(7-37)OH. With HVEGTFTSDVSSYLEGQAAKEFIAWLKVGRG [Val^8-Lys^33-Val^34-GLP-1(7-37)OH] the “GLP-1 Receptor Activation” value was 0.08 relative to GLP-1(7-37)OH. In the case of HVEGKFTSDVSSYLEGQAAKEFIAWLVKGRG [Val^8-Lys^11-GLP-1(7-37)OH], the “GLP-1 Receptor Activation” value is reported as 0.001 relative to GLP-1(7-37)OH. In the case of HVEGTFTSDVSSYLEGQAAKEFIHWLVKGRG [Val^8-His^30-GLP-1(7-37)OH], the “GLP-1 Receptor Activation” value is reported as 0.19 relative to GLP-1(7-37)OH. In the case of HVEGTFTSDVSSYLEGQAAKEFIAWLKNGRG [Val^8-Lys^33-Asn^34-GLP-1(7-37)OH], the “GLP-1 Receptor Activation” value is reported as 0.09 relative to GLP-1(7-37)OH. In the case of HVEGTFTSDVSSYLEEKAAKEFIAWLVKGRG [Val^8-Glu^22-Lys^23-GLP-1(7-37)OH], the “GLP-1 Receptor Activation” value is reported as 1.43 relative to GLP-1(7-37)OH. HVEGAFTSDVSSYLEGQAAKEFIAWLVKGRG [Val^8-Ala^11-GLP-1(7-37)OH] was tested, and the “GLP-1 Receptor Activation” value was 0.021 relative to GLP-1(7-37)OH. For HVEGTFTSDVSSYLESQAAKEFIAWLVKGRG [Val^8-Ser^22-GLP-1(7-37)OH], the “GLP-1 Receptor Activation” value was 0.5 relative to GLP-1(7-37)OH. For HAEGTFTSDVSSYLEGQAAEEFIAWLVKGRG [Ala^8-Glu^26-GLP-1(7-37)OH], the “GLP-1 Receptor Activation” value was 0.7 relative to GLP-1(7-37)OH. For HVEGTFTSDVSSYLEGQAAKEFIAWLVKGHG [Val^8-His^36-GLP-1(7-37)OH], the “GLP-1 Receptor Activation” value was 0.22 relative to GLP-1(7-37)OH. With HVEGTFTSDYSSYLEGQAAKEFIAWLVKGRG [Val^8-Tyr^16-GLP-1(7-37)OH] the “GLP-1 Receptor Activation” value was 1.18 relative to GLP-1(7-37)OH. In the case of HVEGTFTSDVSSYLEGQAAKEFIAWLGKGRG [Val^8-Gly^33-GLP-1(7-37)OH], the “GLP-1 Receptor Activation” value is reported as 0.01 relative to GLP-1(7-37)OH. With HVEGTYTSDVSSYLEGQAAKEFIAWLVKGRG [Val^8-Tyr^12-GLP-1(7-37)OH] the “GLP-1 Receptor Activation” value was 0.81 relative to GLP-1(7-37)OH. In the case of HVEGTFTSDVSSYLEGQAAKEFIAWLEKGRG [Val^8-Glu^33-GLP-1(7-37)OH], the “GLP-1 Receptor Activation” value is reported as 0.039 relative to GLP-1(7-37)OH. HVEGTFTSDVSSYLEGQAAKEFIAWLVKERG [Val^8-Glu^35-GLP-1(7-37)OH] was tested, and the “GLP-1 Receptor Activation” value was 0.15 relative to GLP-1(7-37)OH. With HVEGTFTSDVSSYLEGQAAKEFIAWLVGKRG [Val^8-Gly^34-Lys^35-GLP-1(7-37)OH] the “GLP-1 Receptor Activation” value was 0.34 relative to GLP-1(7-37)OH. For HVEGTFTSDVSSYLEGQAAKHFIAWLVKGRG [Val^8-His^27-GLP-1(7-37)OH], the “GLP-1 Receptor Activation” value was 0.37 relative to GLP-1(7-37)OH. For HVEGTFTSDVSSYLEGQAAKEFISWLVKGRG [Val^8-Ser^30-GLP-1(7-37)OH], the “GLP-1 Receptor Activation” value was 0.19 relative to GLP-1(7-37)OH. For HAEGTFTSDVSSYLEQQAAKEFIAWLVKGRG [Gln^22-GLP-1(7-37)OH], the “GLP-1 Receptor Activation” value was 0.42 relative to GLP-1(7-37)OH. For HVEGTFTSDVSSYLEGQAAKEFIAWLVKPRG [Val^8-Pro^35-GLP-1(7-37)OH], the “GLP-1 Receptor Activation” value was 0.094 relative to GLP-1(7-37)OH. For HVEGTFTSDVSSYLEGEAAKEFIAWLVKGR [Val^8-Glu^23-GLP-1(7-36)OH], the “GLP-1 Receptor Activation” value was 0.28 relative to GLP-1(7-37)OH. With HVEGTFTSDVSSYLEKEAAKEFIAWLVKGRH [Val^8-Lys^22-Glu^23-GLP-1(7-37)OH] the “GLP-1 Receptor Activation” value was 0.35 relative to GLP-1(7-37)OH.
